Source: PMC7311471, “The iron–sulphur cluster in human DNA2 is required for all biochemical activities of DNA2”

What was measured:
DNA2 D277A [1] = target: T1, DNA2 D277A (human, UniProt P51530 1-1060, D277A); assay: EMSA; similar affinity as WT; EMSA: 25 mM Tris-HCl pH 8.0, 0.1 mg/ml BSA, 5 mM EDTA, with or without 1 mM DTT, 30 min on ice; 4-5 nM FAM-DNA or 1 nM 32P-DNA; conditions: protein: recombinant; tags: FLAG; 5' flap 32 nt on strand 1; 1:2 and 2:3 paired
T1 sequence: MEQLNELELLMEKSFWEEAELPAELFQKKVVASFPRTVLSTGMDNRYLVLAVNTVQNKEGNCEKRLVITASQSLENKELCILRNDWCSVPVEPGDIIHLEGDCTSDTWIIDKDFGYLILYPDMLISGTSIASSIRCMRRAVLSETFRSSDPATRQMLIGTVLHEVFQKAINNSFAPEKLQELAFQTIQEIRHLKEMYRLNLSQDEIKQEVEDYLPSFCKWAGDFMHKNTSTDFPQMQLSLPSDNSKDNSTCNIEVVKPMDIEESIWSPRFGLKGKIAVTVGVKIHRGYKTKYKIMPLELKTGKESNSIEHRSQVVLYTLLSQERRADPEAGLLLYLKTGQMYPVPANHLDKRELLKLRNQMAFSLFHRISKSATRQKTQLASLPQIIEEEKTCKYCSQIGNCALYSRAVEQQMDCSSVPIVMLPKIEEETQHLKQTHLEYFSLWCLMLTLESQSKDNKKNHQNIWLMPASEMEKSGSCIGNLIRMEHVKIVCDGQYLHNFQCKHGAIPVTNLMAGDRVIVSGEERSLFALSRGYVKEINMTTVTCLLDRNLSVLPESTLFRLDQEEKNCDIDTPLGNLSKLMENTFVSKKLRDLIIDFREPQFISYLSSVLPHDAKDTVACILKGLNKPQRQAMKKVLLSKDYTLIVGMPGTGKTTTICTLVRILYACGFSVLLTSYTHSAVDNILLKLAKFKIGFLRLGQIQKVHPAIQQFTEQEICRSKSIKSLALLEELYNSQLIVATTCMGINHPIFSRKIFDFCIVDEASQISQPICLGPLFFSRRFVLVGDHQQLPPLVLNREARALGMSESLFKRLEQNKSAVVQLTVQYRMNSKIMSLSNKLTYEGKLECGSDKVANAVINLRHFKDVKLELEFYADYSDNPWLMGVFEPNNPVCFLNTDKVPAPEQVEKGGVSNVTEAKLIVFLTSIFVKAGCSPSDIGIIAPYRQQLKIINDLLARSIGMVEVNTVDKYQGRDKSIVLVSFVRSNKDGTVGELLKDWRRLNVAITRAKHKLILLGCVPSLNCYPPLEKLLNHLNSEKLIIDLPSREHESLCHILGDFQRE

DNA2 D277A [2] = target: T1, DNA2 D277A; assay: EMSA; EMSA: 25 mM Tris-HCl pH 8.0, 0.1 mg/ml BSA, 5 mM EDTA, with or without 1 mM DTT, 30 min on ice; 4-5 nM FAM-DNA or 1 nM 32P-DNA; conditions: protein: recombinant; tags: FLAG; label: 3' 32P cordycepin on X04; fork 1:2, 5' arm 32 nt, 3' arm 30 nt

B1: 5' flap (FAM) (mixed)
DNA 1: ATCGATAGTCGGATCCTCTAGACAGCTCCATGTAGCAAGGCACTGGTAGAATTCGGCAGCGT
DNA 2: GACGCTGCCGAATTCTACCAGTGCCTTGCTAGGACATCTTTGCCCACCTGCAGGTTCACCC
DNA 3: TGGGTGAACCTGCAGGTGGGCAAAGATGTCC
B1: binds (DNA2 D277A [1]).

B2: Y-structure (32P) (mixed)
DNA 1: B1 DNA 1
DNA 2: B1 DNA 2
B2: binds (DNA2 D277A [2]).
